Drawing on article PMC7023490, “An M29 Aminopeptidase from Listeria Monocytogenes Contributes to In Vitro Bacterial Growth but not to Intracellular Infection” (Microorganisms, 2020), this text covers Km for one protein.

Test in all cases: purified protein
Common to all, as to conditions: 25 mM Tris-HCl pH 7.4, 37 °C, 0.05 μM enzyme, no added metal mentioned

Substrate in series [1]: CC(C)C[C@H](N)C(=O)Nc1ccc([N+](=O)[O-])cc1
Substrate in series [2]: C[C@H](N)C(=O)Nc1ccc([N+](=O)[O-])cc1
Substrate in series [3]: N=C(N)NCCC[C@H](N)C(=O)Nc1ccc([N+](=O)[O-])cc1
Substrate in series [4]: NCCCC[C@H](N)C(=O)Nc1ccc([N+](=O)[O-])cc1
Substrate in series [5]: N[C@@H](Cc1ccccc1)C(=O)Nc1ccc([N+](=O)[O-])cc1

B1: LmAmpII (Listeria monocytogenes EGD-e) (protein)
chain: MTVFSEKLEKYAELIVKVGVNVQPEQKVVIMAPVDAAPLVRLISKYAFEVGAEDVIMDWRDEELGALRYKNAPLRVFESAPVHRVAEKTELAKEGACFISITSEDPDLLNGVDSNKIATFQKTMGGAMSEFRELMQANVVSWTVVAAASQGWAAKVFPDLTPAEQMETLWEAIFETTRINTENPVETWKNHDQTLAAKAESLNEKQFTSLHYTAPGTDLTIGLPKNHLWVGAGSKNKKGHEFMANMPTEEVFCCADKLKVEGYVSSTKPLSYAGNIIDDFKITFEKGRIVGVEAASGEEILKDLIATDEGSHYLGEVALVPDPSPISQSGILFYNTLFDENASNHLAIGSAYAFNVKGGEEMSREELEAAGVNNSLTHVDFMIGSSEMDIDGVTESGEVVPVFRKGDWAF
On to B1, for which the Km (as a rule, the substrate concentration at which the rate is half of its maximum) in “purified protein [1]” turned out to be 95.62 µM; in the series “purified protein [2]”, 340 µM; in the series “purified protein [3]” it was 24.94 µM; in “purified protein [4]”, 165.6 µM; in “purified protein [5]” it was 399.6 µM.
